From article PMC8165797 come the findings set out here.

A word on the Km: it is the concentration of substrate that gives half-maximal velocity.

Changes are numbered by the printed parent chain. Numbers in names are those of the source.

What all share (assay): purified protein
What all share (assay type): biochemical, Irpex lacteus
Common to all, as to details: 0.1 mM H2O2, 10 mM sodium tartrate pH 3.5, 3.3 nM enzyme

Substrate in data set [1]: CCn1c(=NN=c2sc3cc(S(=O)(=O)O)ccc3n2CC)sc2cc(S(=O)(=O)O)ccc21
Substrate in data set [2]: COc1cccc(OC)c1O
Substrate in data set [3]: Nc1c(S(=O)(=O)O)cc(Nc2cccc(S(=O)(=O)CCOS(=O)(=O)O)c2)c2c1C(=O)c1ccccc1C2=O

B1: Il-DyP4 (Irpex lacteus; W410F) (protein)
chain: SAGNDSLPFENIQGDILVGMKKDKEKFVFFHINNATAFKSVLKTYAPANITSVATIIGPVANQPLAFVNLAFSHAGFGALNVTDDLQDTAFSDGQFKDSPNLGDDTSTWEEAFKGTNVDGVFLIGSNDESITAQYRDDLNAKFGDAWTIVYDLDSAARPGNEKGHEHFGYLDGISNPTIPGFGTPHPGQAVVDPGIIFTGRSKDPVMNRPSWALDGSFLVFRKLKQLVPEFNKYVLDNALQNQAGNLTVEEGAELLGSRMFGRWKSGAPIDLSPDFDDPALGNDIERNNNFNYSHPGSDLATDQTRCPFTAHIRKTNPRDLEGQGLFGDTFHAIRAGTPYGPEVTDYEASSNTTTIDRGLAFVEYQSVIGNGFRFQQQAFANNPRFPFSKGPSIQLGLDPVIGQGSPRETFGLDPRNASESFTVPQVIISNGGEYFFSPSITAIVEKFAA
notes: monomer, model residues 6-450
For the protein B1, in the data set “purified protein [1]”, the Michaelis-Menten constant (Km) worked out at 752.00 ± 207.21 µM, the kcat is 316.16 ± 61.61 s ^-1 and the kcat/Km result is “(4.20 ± 2.90) × 10^5 M^-1 s^-1”.

B2: Il-DyP4 (Irpex lacteus; W294R) (protein)
chain: B1 chain with W264R, F380W
notes: monomer, model residues 6-450
Consider B2, for which, in “purified protein [2]”, the Michaelis-Menten constant (Km) came to 1082.00 ± 283.00 µM, the kcat came out at 18.28 ± 2.30 s ^-1 and the kcat/Km result is recorded as “(1.69 ± 0.81) × 10^4 M^-1 s^-1”. In “purified protein [1]”, the Km amounted to 19.47 ± 4.41 µM, the kcat amounted to 52.78 ± 2.86 s ^-1 and the kcat/Km entry was “(2.71 ± 0.65) × 10^6 M^-1 s^-1”.

B3: Il-DyP4 (Irpex lacteus; W139F) (protein)
chain: B1 chain with W109F, F380W
notes: monomer, model residues 6-450
In the case of B3, in the data set “purified protein [2]”, the Km was 172.71 ± 38.31 µM, the kcat was found to be 69.65 ± 3.46 s ^-1 and the kcat/Km result was “(4.03 ± 0.90) × 10^5 M^-1 s^-1”.

B4: Il-DyP4 (Irpex lacteus; W294H) (protein)
chain: B1 chain with W264H, F380W
notes: monomer, model residues 6-450
Turning to B4, in the data set “purified protein [2]”, the Km stood at 42.64 ± 6.32 µM, the kcat is listed as 54.29 ± 1.08 s ^-1 and the kcat/Km result is reported as “(1.27 ± 0.17) × 10^6 M^-1 s^-1”.

B5: Il-DyP4 (Irpex lacteus) (protein)
chain: B1 chain with F380W
notes: monomer, model residues 6-450
Take B5: in “purified protein [2]”, the Km worked out at 8.98 ± 1.02 µM, the kcat was found to be 58.99 ± 0.45 s ^-1 and the kcat/Km entry is recorded as “(6.57 ± 0.44) × 10^6 M^-1 s^-1”. In addition, in “purified protein [1]”, the Km amounted to 67.29 ± 13.05 µM, the kcat is on record as 790 ± 56.06 s ^-1 and the kcat/Km result is reported as “(1.17 ± 0.43) × 10^7 M^-1 s^-1”. Also, in “purified protein [3]”, the Km was determined as 139.87 ± 42.85 µM, the kcat worked out at 187.90 ± 37.00 s ^-1 and the kcat/Km result was “(1.34 ± 0.86) × 10^6 M^-1 s^-1”.

B6: Il-DyP4 (Irpex lacteus; W294Y) (protein)
chain: B1 chain with W264Y, F380W
notes: monomer, model residues 6-450
In the case of B6, in the data set “purified protein [2]”, the Km was determined as 953.00 ± 102.70 µM, the kcat was found to be 56.25 ± 2.81 s ^-1 and the kcat/Km result is “(5.90 ± 2.74) × 10^4 M^-1 s^-1”.

B7: Il-DyP4 (Irpex lacteus; W410Y) (protein)
chain: B1 chain with F380Y
notes: monomer, model residues 6-450
B7: in the data set “purified protein [1]”, the Michaelis constant (Km) is 275.07 ± 77.79 µM, the kcat amounted to 88.38 ± 15.66 s ^-1 and the kcat/Km result was “(3.21 ± 2.01) × 10^5 M^-1 s^-1”.

B8: Il-DyP4 (Irpex lacteus; W294F) (protein)
chain: B1 chain with W264F, F380W
notes: monomer, model residues 6-450
On to B8, for which, in the data set “purified protein [2]”, the Km came out at 229.05 ± 30.79 µM, the kcat is reported as 71.21 ± 2.60 s ^-1 and the kcat/Km entry is listed as “(3.11 ± 0.84) × 10^5 M^-1 s^-1”. In the data set “purified protein [1]”, the Michaelis constant (Km) was 71.87 ± 20.86 µM, the kcat was found to be 384.85 ± 42.27 s ^-1 and the kcat/Km entry is “(5.35 ± 2.02) × 10^6 M^-1 s^-1”. In the data set “purified protein [3]”, the Km amounted to 27.60 ± 7.70 µM, the kcat was 46.11 ± 5.91 s ^-1 and the kcat/Km entry is listed as “(1.67 ± 0.76) × 10^6 M^-1 s^-1”.
